Results as given in US20020099172A1.

Target: Xwnt-8 (Xenopus) (UniProt P28026)
Assay: cell-based or functional assay

Chain of UniProt P28026 (P28026 23-358 limits assumed): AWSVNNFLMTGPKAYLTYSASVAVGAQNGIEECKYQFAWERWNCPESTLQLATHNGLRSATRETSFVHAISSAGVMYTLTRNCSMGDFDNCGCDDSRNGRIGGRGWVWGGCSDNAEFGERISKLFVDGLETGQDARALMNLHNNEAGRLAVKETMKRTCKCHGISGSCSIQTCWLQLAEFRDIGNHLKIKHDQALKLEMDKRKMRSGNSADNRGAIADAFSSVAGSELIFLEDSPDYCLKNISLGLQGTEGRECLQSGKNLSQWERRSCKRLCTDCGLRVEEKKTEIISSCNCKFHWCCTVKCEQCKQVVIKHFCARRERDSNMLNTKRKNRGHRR

embryos with secondary axes after injection of frzb-1 mRNA (animal blastomeres) and Xwnt-8 mRNA (vegetal-ventral blastomere); Xwnt-8 alone gave complete secondary axes in 67% of the embryos (n=53): 14%
Substance: frzb-1 (Xenopus, expressed from injected mRNA)
